PMC4490372, “Architecture of TFIIIC and its role in RNA polymerase III pre-initiation complex assembly” (Nature Communications, 2015)
Positions count from the first letter of the chain named.

How the values were obtained:
τ131 (123–566) E472K [1] = molecular target: T1, τ131 (123–566) E472K (S. cerevisiae, UniProt P33339 123-566, E472K); test: ITC; MicroCal ITC200; 15 μM τ138 in the cell, 150 μM τ131 in the syringe; 20 mM Tris pH 7.5, 150 mM NaCl, 2 mM β-mercaptoethanol; 25 °C; settings: both partners purified
T1 construct: source: E. coli, purified by the same method as the wild type; not shown: His6, N-terminal, cleaved
T1 sequence (looked up): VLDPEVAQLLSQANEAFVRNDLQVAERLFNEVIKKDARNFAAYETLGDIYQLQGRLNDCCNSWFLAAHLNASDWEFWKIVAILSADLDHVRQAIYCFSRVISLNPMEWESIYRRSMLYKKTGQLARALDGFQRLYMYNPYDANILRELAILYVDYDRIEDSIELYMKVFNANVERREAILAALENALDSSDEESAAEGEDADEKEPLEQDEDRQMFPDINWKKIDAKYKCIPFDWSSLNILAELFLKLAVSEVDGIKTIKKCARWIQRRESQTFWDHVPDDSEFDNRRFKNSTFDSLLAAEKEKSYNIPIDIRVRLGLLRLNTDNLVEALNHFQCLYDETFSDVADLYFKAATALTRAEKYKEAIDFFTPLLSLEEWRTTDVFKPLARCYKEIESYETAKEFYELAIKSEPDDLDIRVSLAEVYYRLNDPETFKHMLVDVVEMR

τ131 (123–566) E497K [2] = molecular target: T2, τ131 (123–566) E497K (S. cerevisiae, UniProt P33339 123-566, E497K); test: as above; settings: both partners purified
T2 construct: source: E. coli, purified by the same method as the wild type; not shown: His6, N-terminal, cleaved
T2 sequence (looked up): T1 sequence (looked up) with K350E, E375K

τ131 (123–566) E498K [3] = molecular target: T3, τ131 (123–566) E498K (S. cerevisiae, UniProt P33339 123-566, E498K); test: as above; settings: both partners purified
T3 construct: source: E. coli, purified by the same method as the wild type; not shown: His6, N-terminal, cleaved
T3 sequence (looked up): T1 sequence (looked up) with K350E, E376K

[4] = molecular target: T4, τ131 (123–566), TPR array, wild type (S. cerevisiae, UniProt P33339 123-566); test: as above; settings: both partners purified
T4 construct: also called τ131 TPR array; source: E. coli BL21 Star (DE3) pRARE, purified (Ni-NTA, TEV cleavage, S200 SEC); not shown: His6, N-terminal, cleaved
T4 sequence (looked up): T1 sequence (looked up) with K350E

τ131 (123–566) E498K [5] = molecular target: T5, τ131 (123–566) E498K (S. cerevisiae, UniProt P33339 123-566, E498K); test: ITC
T5 sequence: T1 sequence (looked up) with K350E, E376K

τ131 (123–566) E472K [6] = molecular target: T6, τ131 (123–566) E472K (S. cerevisiae, UniProt P33339 123-566, E472K); test: ITC
T6 sequence: T1 sequence (looked up)

τ131 (123–566) E497K [7] = molecular target: T7, τ131 (123–566) E497K (S. cerevisiae, UniProt P33339 123-566, E497K); test: ITC
T7 sequence: T1 sequence (looked up) with K350E, E375K

[8] = molecular target: T8, τ138 (Tfc3), τB subunit of endogenous S. cerevisiae TFIIIC (S. cerevisiae, UniProt P34111 1-1160); test: cross-linking; XL-MS: purified endogenous TFIIIC (30 μg, 1 μg/μl) cross-linked with H12/D12 DSS to 2 mM, 40 min at 37 °C; ld-score >25; settings: both partners purified
T8 construct: τ138 (Tfc3), subunit of S. cerevisiae TFIIIC, endogenous subunit in the purified complex; source: endogenous, purified from S. cerevisiae strain SC2342 as part of TFIIIC (TAP tag on τ60)
T8 sequence (looked up): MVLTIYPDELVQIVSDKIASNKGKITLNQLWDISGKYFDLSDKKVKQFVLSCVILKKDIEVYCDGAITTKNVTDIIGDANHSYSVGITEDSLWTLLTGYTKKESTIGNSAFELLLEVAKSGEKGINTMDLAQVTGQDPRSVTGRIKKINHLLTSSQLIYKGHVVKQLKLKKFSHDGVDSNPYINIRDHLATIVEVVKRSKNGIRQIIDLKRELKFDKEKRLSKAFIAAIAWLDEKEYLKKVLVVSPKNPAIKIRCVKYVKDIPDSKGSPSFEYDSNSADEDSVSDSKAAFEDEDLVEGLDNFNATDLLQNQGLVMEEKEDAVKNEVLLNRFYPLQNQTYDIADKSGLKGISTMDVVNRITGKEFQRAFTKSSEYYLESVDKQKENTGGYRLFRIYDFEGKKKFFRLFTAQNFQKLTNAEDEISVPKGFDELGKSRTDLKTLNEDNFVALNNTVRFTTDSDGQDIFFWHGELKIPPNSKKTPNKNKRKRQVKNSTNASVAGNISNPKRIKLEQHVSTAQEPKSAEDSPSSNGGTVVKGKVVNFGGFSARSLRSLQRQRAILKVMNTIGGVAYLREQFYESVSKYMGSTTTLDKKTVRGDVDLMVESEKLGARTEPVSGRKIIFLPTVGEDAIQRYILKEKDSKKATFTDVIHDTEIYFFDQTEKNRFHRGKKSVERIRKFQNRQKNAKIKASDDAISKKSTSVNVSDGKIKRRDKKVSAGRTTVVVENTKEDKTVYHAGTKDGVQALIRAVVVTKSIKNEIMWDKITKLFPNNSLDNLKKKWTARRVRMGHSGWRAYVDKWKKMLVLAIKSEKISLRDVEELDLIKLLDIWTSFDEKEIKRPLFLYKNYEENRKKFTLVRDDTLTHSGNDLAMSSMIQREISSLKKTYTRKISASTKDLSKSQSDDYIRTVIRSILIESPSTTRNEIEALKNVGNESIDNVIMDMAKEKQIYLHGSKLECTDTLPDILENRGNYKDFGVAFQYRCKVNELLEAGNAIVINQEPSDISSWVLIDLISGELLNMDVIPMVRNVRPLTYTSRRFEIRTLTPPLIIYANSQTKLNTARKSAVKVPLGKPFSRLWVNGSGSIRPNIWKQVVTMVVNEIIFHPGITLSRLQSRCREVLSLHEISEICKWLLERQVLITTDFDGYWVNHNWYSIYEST

B1: τ138 (641–693), τ131-Interaction Region (τIR) (domain or fragment, S. cerevisiae, UniProt P34111 641-693, looked up)
chain: SKKATFTDVIHDTEIYFFDQTEKNRFHRGKKSVERIRKFQNRQKNAKIKASDD
notes: The cloning and tag of this construct as used for ITC and SEC are not described; also called τ138 (τIR); unstructured region of τ138; source: purified; expression of this construct not described
- binding result (τ131 (123–566) E472K [1]): binds
- binding result (τ131 (123–566) E497K [2]): binds
- binding result (τ131 (123–566) E498K [3]): binds
- Kd [4]: ~80 nM
- Kd (τ131 (123–566) E498K [5]): 833 nM
- Kd (τ131 (123–566) E472K [6]): 833 nM
- Kd (τ131 (123–566) E497K [7]): 89 nM

B2: τ138 construct with residues 682–693 removed (domain or fragment)
chain: SARSLRSLQRQRAILKVMNTIGGVAYLREQFYESVSKYMGSTTTLDKKTVRGDVDLMVESEKLGARTEPVSGRKIIFLPTVGEDAIQRYILKEKDSKKATFTDVIHDTEIYFFDQTEKNRFHRGKKSVERIRKFQN
- Kd [4]: ~2600 nM

B3: τ131 (Tfc4), τA subunit of endogenous S. cerevisiae TFIIIC (natural protein, UniProt P33339 1-1025, looked up)
chain: MAAGKLKKEQQNQSAERESADTGKVNDEDEEHLYGNIDDYKHLIQDEEYDDEDVPHDLQLSEDEYNSERDSSLLAEFSDYGEISEDDEEDFMNAIREASNFKVKKKKKNDKGKSYGRQRKERVLDPEVAQLLSQANEAFVRNDLQVAERLFNEVIKKDARNFAAYETLGDIYQLQGRLNDCCNSWFLAAHLNASDWEFWKIVAILSADLDHVRQAIYCFSRVISLNPMEWESIYRRSMLYKKTGQLARALDGFQRLYMYNPYDANILRELAILYVDYDRIEDSIELYMKVFNANVERREAILAALENALDSSDEESAAEGEDADEKEPLEQDEDRQMFPDINWKKIDAKYKCIPFDWSSLNILAELFLKLAVSEVDGIKTIKKCARWIQRRESQTFWDHVPDDSEFDNRRFKNSTFDSLLAAEKEKSYNIPIDIRVRLGLLRLNTDNLVEALNHFQCLYDETFSDVADLYFEAATALTRAEKYKEAIDFFTPLLSLEEWRTTDVFKPLARCYKEIESYETAKEFYELAIKSEPDDLDIRVSLAEVYYRLNDPETFKHMLVDVVEMRKHQVDETLHRISNEKSSNDTSDISSKPLLEDSKFRTFRKKKRTPYDAERERIERERRITAKVVDKYEKMKKFELNSGLNEAKQASIWINTVSELVDIFSSVKNFFMKSRSRKFVGILRRTKKFNTELDFQIERLSKLAEGDSVFEGPLMEERVTLTSATELRGLSYEQWFELFMELSLVIAKYQSVEDGLSVVETAQEVNVFFQDPERVKMMKFVKLAIVLQMDDEEELAENLRGLLNQFQFNRKVLQVFMYSLCRGPSSLNILSSTIQQKFFLRQLKAFDSCRYNTEVNGQASITNKEVYNPNKKSSPYLYYIYAVLLYSSRGFLSALQYLTRLEEDIPDDPMVNLLMGLSHIHRAMQRLTAQRHFQIFHGLRYLYRYHKIRKSLYTDLEKQEADYNLGRAFHLIGLVSIAIEYYNRVLENYDDGKLKKHAAYNSIIIYQQSGNVELADHLMEKYLSI
notes: τ131 (Tfc4), subunit of S. cerevisiae TFIIIC, endogenous subunit in the purified complex; Endogenous subunit; source: endogenous, purified from S. cerevisiae strain SC2342 as part of TFIIIC (TAP tag on τ60)
- binding result [8]: binds

B4: τ91 (Tfc6), τB subunit of endogenous S. cerevisiae TFIIIC (natural protein, UniProt Q06339 1-672, looked up)
chain: MAVIPAKKRGRPRKSVVAEVPYDSLASPVSENSGSKRPRRNASKKAVANFAQLVHAGRDDVINTTQVNNVDDTDDDDFVLNDEGDGEESDNVEIEFENELESTKNEVADLNSSGSGASVRPSGRRNTVQKLRLKKNSTKNMKSSSPGSSLGQKGRPIRLLKDLSSARDKIERIYGLNKEKLLLLAKVKEGFETSVFDFPFKNIQPDSPYFVCLDPPCKKESAYNKVIGDKNRTVYHEINKTEFENMIKLRTKRLKLLIGEVDAEVSTGDKIEFPVLANGKRRGFIYNVGGLVTDIAWLNIEENTDIGKDIQYLAVAVSQYMDEPLNEHLEMFDKEKHSSCIQIFKMNTSTLHCVKVQTIVHSFGEVWDLKWHEGCHAPHLVGCLSFVSQEGTINFLEIIDNATDVHVFKMCEKPSLTLSLADSLITTFDFLSPTTVVCGFKNGFVAEFDLTDPEVPSFYDQVHDSYILSVSTAYSDFEDTVVSTVAVDGYFYIFNPKDIATTKTTVSRFRGSNLVPVVYCPQIYSYIYSDGASSLRAVPSRAAFAVHPLVSRETTITAIGVSRLHPMVLAGSADGSLIITNAARRLLHGIKNSSATQKSLRLWKWDYSIKDDKYRIDSSYEVYPLTVNDVSKAKIDAHGINITCTKWNETSAGGKCYAFSNSAGLLTLEYLS
notes: τ91 (Tfc6), subunit of S. cerevisiae TFIIIC, endogenous subunit in the purified complex; source: endogenous, purified from S. cerevisiae strain SC2342 as part of TFIIIC (TAP tag on τ60)
- binding result [8]: binds
